Laboratory results taken from article PMC9881131, “ZNF212 promotes genomic integrity through direct interaction with TRAIP” (Nucleic Acids Research, 2023).

Biological target: T1, recombinant HA-NEIL3 (human, UniProt Q8TAT5 1-605)
T1 construct: NEIL3, human (hNEIL3), subcloned into a pET19b-derived plasmid; The methods tell 3x FLAG (N-terminus) and 10x His (C-terminus); the results call the purified protein HA-NEIL3; Which tags stood on the protein in the assay is not clear; also called hNEIL3; source: E. coli BL21 (DE3), purified (Ni-NTA, Q column, gel filtration)
T1 sequence (looked up): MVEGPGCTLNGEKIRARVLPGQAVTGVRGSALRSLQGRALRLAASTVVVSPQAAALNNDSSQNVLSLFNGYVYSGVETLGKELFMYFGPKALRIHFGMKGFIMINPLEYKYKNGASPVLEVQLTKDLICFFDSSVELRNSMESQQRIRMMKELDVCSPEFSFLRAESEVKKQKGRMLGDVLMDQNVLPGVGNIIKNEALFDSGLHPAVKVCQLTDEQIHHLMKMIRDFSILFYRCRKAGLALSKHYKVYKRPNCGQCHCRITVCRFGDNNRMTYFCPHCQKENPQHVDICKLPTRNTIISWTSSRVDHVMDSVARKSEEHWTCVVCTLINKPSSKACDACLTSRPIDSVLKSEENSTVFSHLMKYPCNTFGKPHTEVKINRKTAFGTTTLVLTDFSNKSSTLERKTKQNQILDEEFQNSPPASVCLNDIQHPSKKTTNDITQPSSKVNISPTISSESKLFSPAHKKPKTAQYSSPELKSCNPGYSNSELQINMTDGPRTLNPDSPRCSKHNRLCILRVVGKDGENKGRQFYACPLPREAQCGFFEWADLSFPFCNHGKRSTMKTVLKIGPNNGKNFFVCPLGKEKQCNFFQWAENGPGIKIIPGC
Experiment: co-IP; purified recombinant Flag-ZNF212 (or ZNF212-C) and HA-NEIL3; immunoprecipitation with increasing amounts of HA-NEIL3
Details: both partners purified

binding result: binds
B1: recombinant Flag-ZNF212 (natural protein)
chain: not shown
notes: ZNF212, human, 3X-Flag tagged coding region cloned in pCold TF DNA; The host strain (E. coli BL21 (DE3)) is stated for hNEIL3 only; the later purification steps are told for hNEIL3 only; also called hZNF212; source: pCold TF DNA vector, cells grown in LB broth at 15°C, purified (Ni-NTA)
